How the values were obtained:
[1] = target: truncated human CD163 ECD SRCR domain 1-5 fragment with C-terminus histidine tag (human) (UniProt Q86VB7); experiment: ratio of EC50 on huCD163 SRCR 1-5 to EC50 on huCD163 ECD
[2] = target: recombinant murine CD163 (R&D Systems, No. 7435-CD-050) (murine) (UniProt Q2VLH6); experiment: ELISA on plate-coated recombinant murine CD163 (5 ug/mL)
Chain of recombinant murine CD163 (R&D Systems, No. 7435-CD-050) (murine) (Q2VLH6 39-1045 limits assumed): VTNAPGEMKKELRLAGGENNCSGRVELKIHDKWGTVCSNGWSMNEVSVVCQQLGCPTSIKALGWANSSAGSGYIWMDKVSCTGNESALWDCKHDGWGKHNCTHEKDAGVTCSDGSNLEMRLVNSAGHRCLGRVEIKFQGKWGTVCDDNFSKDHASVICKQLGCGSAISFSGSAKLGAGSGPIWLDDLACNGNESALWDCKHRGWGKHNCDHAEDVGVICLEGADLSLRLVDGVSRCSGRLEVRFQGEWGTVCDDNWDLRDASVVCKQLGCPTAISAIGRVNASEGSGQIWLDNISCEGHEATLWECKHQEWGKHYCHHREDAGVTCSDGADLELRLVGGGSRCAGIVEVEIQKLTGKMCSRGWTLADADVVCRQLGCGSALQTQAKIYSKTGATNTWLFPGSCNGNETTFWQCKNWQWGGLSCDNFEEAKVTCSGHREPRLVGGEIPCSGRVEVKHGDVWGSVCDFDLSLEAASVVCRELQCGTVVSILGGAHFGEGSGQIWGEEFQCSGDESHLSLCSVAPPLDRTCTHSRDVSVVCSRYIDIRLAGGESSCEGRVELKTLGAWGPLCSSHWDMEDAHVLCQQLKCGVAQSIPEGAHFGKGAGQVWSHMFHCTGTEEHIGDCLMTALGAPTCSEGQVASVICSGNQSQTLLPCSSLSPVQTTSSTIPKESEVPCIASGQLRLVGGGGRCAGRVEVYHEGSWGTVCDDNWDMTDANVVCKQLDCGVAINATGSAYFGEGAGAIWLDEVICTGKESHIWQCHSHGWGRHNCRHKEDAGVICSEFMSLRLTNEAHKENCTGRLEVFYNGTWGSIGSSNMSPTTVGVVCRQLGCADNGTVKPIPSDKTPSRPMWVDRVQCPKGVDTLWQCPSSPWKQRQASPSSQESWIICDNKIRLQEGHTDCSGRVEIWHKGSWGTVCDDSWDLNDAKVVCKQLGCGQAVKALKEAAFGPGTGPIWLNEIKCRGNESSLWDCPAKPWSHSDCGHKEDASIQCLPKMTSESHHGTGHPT

Chain of truncated human CD163 ECD SRCR domain 1-5 fragment with C-terminus histidine tag (human) (Q86VB7 42-578 limits assumed): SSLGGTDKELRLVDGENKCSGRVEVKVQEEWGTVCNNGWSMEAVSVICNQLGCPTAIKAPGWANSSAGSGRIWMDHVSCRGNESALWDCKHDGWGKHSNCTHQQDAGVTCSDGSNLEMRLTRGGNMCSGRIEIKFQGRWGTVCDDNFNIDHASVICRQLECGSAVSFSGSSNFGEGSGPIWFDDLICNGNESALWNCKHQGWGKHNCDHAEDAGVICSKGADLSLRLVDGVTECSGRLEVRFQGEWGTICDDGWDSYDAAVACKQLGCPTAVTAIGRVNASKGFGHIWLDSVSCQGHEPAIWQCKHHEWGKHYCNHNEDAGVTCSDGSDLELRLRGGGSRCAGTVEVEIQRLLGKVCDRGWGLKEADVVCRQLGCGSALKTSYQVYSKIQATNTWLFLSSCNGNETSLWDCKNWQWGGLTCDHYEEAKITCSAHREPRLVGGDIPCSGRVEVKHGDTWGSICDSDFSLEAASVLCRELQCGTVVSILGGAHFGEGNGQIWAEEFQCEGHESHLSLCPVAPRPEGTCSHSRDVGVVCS

Row | Substance | Ratio SRCR 1-5/ECD [1] | EC50 (read off the curve) [2]
1 | 215927 (antibody) | 1.17 | 
2 | EDHu-1 (antibody) | 0.96 | 
3 | commercially available rat anti-muCD163 antibody (Thermo Fisher Scientific #14-1631-82) |  | 0.03 nM
